Experimental data reported in patent US20240368575A1, “AN ENGINEERED YEAST CELL FOR THE DELIVERY OF ANTIBIOTIC-INACTIVATING ENZYMES” (priority 2021, published 2024).

Key:
[1] = system: C[C@@H](O)[C@H]1C(=O)N2C(C(=O)O)=C(SCCN=CN)C[C@H]12; assay: purified protein, by the assay type; details: other: purified BL3 protein, assay with imipenem, 30° C., 50 mM HEPES pH 7.5, 50 μM ZnSO4
[2] = system: CC1(C)S[C@@H]2[C@H](NC(=O)[C@H](N)c3ccccc3)C(=O)N2[C@H]1C(=O)O; assay: Steady-state kinetic parameters of purified BL (P3A) beta-lactamase, ampicillin hydrolysis; assay type: biochemical, Bacillus licheniformis 749/C; details: other: purified BL protein, assay with ampicillin, 30° C., 50 mM HEPES pH 7.5
[3] = target: VIM-2 metallo-beta-lactamase variant (BL2), SEQ ID NO:115 (parent VIM-2, SEQ ID NO:8) (Pseudomonas aeruginosa, UniProt Q9K2N0, E156D/Q48H/Q60R/V27S/V36A); assay: Steady-state kinetic parameters of purified BL2 beta-lactamase, imipenem hydrolysis; assay type: biochemical; details: purified BL2 protein; assay with imipenem, 30° C., 50 mM HEPES pH 7.5, 50 μM ZnSO4
Experimental: β-lactamase genes bl2 and bl3, encoding respectively the metallo β-lactamases VIM-2 variant of amino acid sequence SEQ ID NO:115 and BcII from Bacillus cereus of amino acid sequence SEQ ID NO:117, were heterologously expressed in S. boulardii.
Each sample was measured in triplicates.

[4] = target: P3A variant of the beta-lactamase from Bacillus licheniformis 749/C (BL), SEQ ID NO: 12 (Bacillus licheniformis, UniProt P00808, D288N); assay: Steady-state kinetic parameters of purified BL (P3A) beta-lactamase, ampicillin hydrolysis; assay type: biochemical; details: purified BL protein; assay with ampicillin, 30° C., 50 mM HEPES pH 7.5
Sequence of P3A variant of the beta-lactamase from Bacillus licheniformis 749/C (BL), SEQ ID NO: 12 (P00808 46-307 D288N): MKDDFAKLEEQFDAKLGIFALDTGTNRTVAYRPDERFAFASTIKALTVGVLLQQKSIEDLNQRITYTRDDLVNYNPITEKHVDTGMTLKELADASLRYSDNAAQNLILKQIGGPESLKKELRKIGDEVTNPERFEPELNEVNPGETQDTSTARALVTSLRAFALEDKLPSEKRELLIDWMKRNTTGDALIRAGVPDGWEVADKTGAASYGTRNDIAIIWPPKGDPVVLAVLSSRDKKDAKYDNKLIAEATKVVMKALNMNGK

Compound: BcII metallo-beta-lactamase from Bacillus cereus (BL3), SEQ ID NO:117 (Bacillus cereus)
- Km [1]: 220 µM
- kcat [1]: 115 s⁻¹

Compound: P3A variant of the beta-lactamase from Bacillus licheniformis 749/C (BL), SEQ ID NO: 12 (Bacillus licheniformis; D288N)
- Km [2]: 180 µM

Compound: C[C@@H](O)[C@H]1C(=O)N2C(C(=O)O)=C(SCCN=CN)C[C@H]12 [imipenem]
- Km [3]: 12 µM
- kcat [3]: 200 s⁻¹

Compound: CC1(C)S[C@@H]2[C@H](NC(=O)[C@H](N)c3ccccc3)C(=O)N2[C@H]1C(=O)O [ampicillin]
- kcat [4]: 1,345 s^−1
